From publication PMC12003778

Experiments:
[1] = target: human GLT25D1/COLGALT1 (wild type) (human) (UniProt Q8NBJ5); test: SEC-SAXS
[2] = target: human GLT25D1/COLGALT1 (wild type) (human) (UniProt Q8NBJ5); test: SEC-MALS
[3] = target: human GLT25D1/COLGALT1 (wild type) (human) (UniProt Q8NBJ5); test: mass photometry

Measured: stoichiometry N

human GLT25D1/COLGALT1 (wild type) (from UniProt Q8NBJ5 30-618) (enzyme)
2: all assays above
